Assay results taken from publication PMC5993824 (Nature Communications, 2018).

Target: T1, GST-CypA (UniProt P62937 1-165)
T1 construct: cyclophilin A fused to GST; source: E. coli BL21, purified on glutathione-agarose
Assay: pull-down; GST proteins (GST, GST-CypA, GST-FKBP12) on glutathione sepharose (10 µl) added to HEK 293 T lysate (50 µl diluted to 500 µL with lysis buffer) of cells transfected with an empty (pCi) or Tat vector; 1 h at 4 °C; three washes with lysis buffer; western blots
Details: one partner purified

T1 sequence (P62937 whole entry, the tested form may be a part): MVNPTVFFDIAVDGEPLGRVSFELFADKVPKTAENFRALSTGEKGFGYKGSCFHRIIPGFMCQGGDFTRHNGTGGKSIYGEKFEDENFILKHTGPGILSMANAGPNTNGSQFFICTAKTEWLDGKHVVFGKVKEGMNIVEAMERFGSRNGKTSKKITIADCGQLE

B1: DHHC-20 (enzyme, human (endogenous in HEK 293 T), UniProt Q5W0Z9 1-365, looked up)
chain: MAPWTLWRCCQRVVGWVPVLFITFVVVWSYYAYVVELCVFTIFGNEENGKTVVYLVAFHLFFVMFVWSYWMTIFTSPASPSKEFYLSNSEKERYEKEFSQERQQEILRRAARALPIYTTSASKTIRYCEKCQLIKPDRAHHCSACDSCILKMDHHCPWVNNCVGFSNYKFFLLFLLYSLLYCLFVAATVLEYFIKFWTNELTDTRAKFHVLFLFFVSAMFFISVLSLFSYHCWLVGKNRTTIESFRAPTFSYGPDGNGFSLGCSKNWRQVFGDEKKYWLLPIFSSLGDGCSFPTRLVGMDPEQASVTNQNEYARSSGSNQPFPIKPLSESKNRLLDSESQWLENGAEEGIVKSGTNNHVTVAIEN
notes: S-acyl transferase DHHC-20, detected with anti-DHHC-20 (Sigma SAB 4501054); also called S-acyl transferase DHHC-20; source: endogenous, HEK 293 T lysate
With B1 the “fold more pulled down from extracts of Tat-transfected cells against empty-vector cells” value was about 4 fold.
